Substitutions are numbered along the chain they refer to.
B1: C3CB8 (bispecific antibody, human IgG4 S228P, lambda, F234A L235A)
heavy 1: not shown
light 1: SYELTQPPSVSVSPGQTASITCSGHKLGDKYACWYQQKPGQSPVVVIYKDSKRPSGIPERFSGSNFGNTATLTISGTQAMDEADYYCQAWDSSTVVFGGGTKLTVLGQPKAAPSVTLFPPSSEELQANKATLVCLISDFYPGAVTVAWKADSSPVKAGVETTTPSKQSNNKYAASSYLSLTPEQWKSHRSYSCQVTHEGSTVEKTVAPTECS
heavy 2: EVQLVESGGGLVQPGGSLRLSCAASGFTFNTYAMNWVRQAPGKGLEWVARIRSKYNNYATYYAASVKGRFTISRDDSKNSLYLQMNSLKTEDTAVYYCARHGNFGNSYVSWFAYWGQGTLVTVSSASTKGPSVFPLAPCSRSTSESTAALGCLVKDYFPEPVTVSWNSGALTSGVHTFPAVLQSSGLYSLSSVVTVPSSSLGTKTYTCNVDHKPSNTKVDKRVESKYGPPCPPCPAPEAAGGPSVFLFPPKPKDTLMISRTPEVTCVVVDVSQEDPEVQFNWYVDGVEVHNAKTKPREEQFNSTYRVVSVLTVLHQDWLNGKEYKCKVSNKGLPSSIEKTISKAKGQPREPQVYTLPPSQEEMTKNQVSLTCLVKGFYPSDIAVEWESNGQPENNYKTTPPVLDSDGSFLLYSKLTVDKSRWQEGNVFSCSVMHEALHNHYTQKSLSLSLGK
light 2: QTVVTQEPSLTVSPGGTVTLTCRSSTGAVTTSNYANWVQQKPGQAPRGLIGGTNKRAPGTPARFSGSLLGGKAALTLSGVQPEDEAEYYCALWYSNLWVFGGGTKLTVLGQPKAAPSVTLFPPSSEELQANKATLVCLISDFYPGAVTVAWKADSSPVKAGVETTTPSKQSNNKYAASSYLSLTPEQWKSHRSYSCQVTHEGSTVEKTVAPTECS
B2: C3CB89 (bispecific antibody, human IgG4 S228P, kappa, lambda, F234A L235A)
heavy 1: not shown
light 1: not shown
heavy 2: B1 heavy 2
light 2: B1 light 2
B3: C3CB5 (bispecific antibody, human IgG4 S228P, lambda, F234A L235A)
heavy 1: not shown
light 1: B1 light 1 with H25D, A32V, Y48H, K49Q, S51R
heavy 2: B1 heavy 2
light 2: B1 light 2
B4: C3CB90 (bispecific antibody, human IgG4 S228P, lambda, F234A L235A)
heavy 1: not shown
light 1: SYELTQPPSVSVSPGQTASITCSGDELGDMYACWYQQKPGQSPLVVIYQDSKRPSGIPERFSGSNSGNTATLTISGTQAMDEAAYYCQTWDTRIAVFGGGTNLTVLGQPKAAPSVTLFPPSSEELQANKATLVCLISDFYPGAVTVAWKADSSPVKAGVETTTPSKQSNNKYAASSYLSLTPEQWKSHRSYSCQVTHEGSTVEKTVAPTECS
heavy 2: B1 heavy 2
light 2: B1 light 2
B5: C3CB16 (bispecific antibody, human IgG4 S228P, lambda, F234A L235A)
heavy 1: not shown
light 1: not shown
heavy 2: B1 heavy 2
light 2: B1 light 2
B6: C3CB14 (bispecific antibody, human IgG4 S228P, lambda, F234A L235A)
heavy 1: not shown
light 1: B1 light 1 with H25D, D29N, C33S, V45L, K49Q, S51T, F61V, F66S, Y86H
heavy 2: B1 heavy 2
light 2: B1 light 2
B7: C3CB87 (bispecific antibody, human IgG4 S228P, kappa, lambda, F234A L235A)
heavy 1: not shown
light 1: not shown
heavy 2: B1 heavy 2
light 2: B1 light 2
B8: C3CB91 (bispecific antibody, human IgG4 S228P, lambda, F234A L235A)
heavy 1: not shown
light 1: SYELTQPPSVSVSPGQTASITCSGDNLGNEHVCWYHQKPGQSPVLVIYQNNKRPSGIPERFSGSNSGNTATLSISGTQATDEADYYCQAWDSTTAVFGGGTKLTVLGQPKAAPSVTLFPPSSEELQANKATLVCLISDFYPGAVTVAWKADSSPVKAGVETTTPSKQSNNKYAASSYLSLTPEQWKSHRSYSCQVTHEGSTVEKTVAPTECS
heavy 2: B1 heavy 2
light 2: B1 light 2
B9: C3CB10 (bispecific antibody, human IgG4 S228P, lambda, F234A L235A)
heavy 1: not shown
light 1: B1 light 1 with H25D, K49Q, S51R
heavy 2: B1 heavy 2
light 2: B1 light 2
B10: C33B909 (antibody, V domains shown)
VH: EVQLVESGGGLVQPGRSLRLSCVASGFTFDDYAIHWVRQAPGKGLEWVSGLSWNGGNIGYADSVKGRFTISRDNAKNSLYLQMNSLKTEDTAFYYCTKDTPYGDYFDYWGQGTLVTVSS
VL: DIQMTQSPSSVWASVGDRVTITCRASQGISSWLAWYQQQPGKAPNLLIYRSSSLQSGVPSRFSGSGSGTDFTLTISSLQPEDFATYYCQQDNSFPYTFGQGTKLEIKR
notes: OMNIMouse mAb; HC C33H249, LC C33L115 (same IDs as C33B901); the campaign was cloned into both IgG1 and IgG4 PAA
B11: C33B910 (antibody, V domains shown)
VH: B10 VH with V23A, A24G, M83L, T97A, T100S
VL: B10 VL with V11E, Q39K, N45K, R50G, S51A, L54W
notes: OMNIMouse mAb; HC C33H250, LC C33L116 (same IDs as C33B902)
B12: C33B915 (antibody, V domains shown)
VH: EVQLVESGGGLVQPGRSLRLSCAASGFTFDDYAMHWVRQVPGEGLEWVSGISWNGGDMVYADSVKGRFTISRDNAKNSLYLQMNSLRPEDTALYYCVKDMPYFDFLTGSDYYYYGMDVWGQGTTVTVSS
VL: SYELTQPPSVSVSPGQTASITCSGDNLGNEHVCWYHQKPGQSPVLVIYQNNKRPSGIPERFSGSNSGNTATLSISGTQATDEADYYCQAWDSTTAVFGGGTKLTVLG
notes: OMNIMouse mAb; HC C33H255, LC C33L121 (same IDs as C33B907); also called C33F553
B13: C33B914 (antibody, V domains shown)
VH: QVQLVESGGGVVQPGRSLRLSCAASGFTFSYYGMHWVRQAPDKGLEWVAVIWFDGNNKYYADSVKGRFTISRDNSKNTLYLQMNSLRAEDTAVYYCARDRELLFDYWGQGTLVTVSS
VL: SYELTQPPSVSVSPGQTASITCSGDELGDMYACWYQQKPGQSPLVVIYQDSKRPSGIPERFSGSNSGNTATLTISGTQAMDEAAYYCQTWDTRIAVFGGGTNLTVLG
notes: OMNIMouse mAb; HC C33H254, LC C33L120 (same IDs as C33B906); also called C33F552
B14: C33B913 (antibody, V domains shown)
VH: EVQLLESGGGLVQPGGSLKLSCTASGFTFRSYAMSWVRQAPGKGLEWVSAINGYGDGRYYADSVKGRFTISRDNSKNTLYLQMNSLRAEDTAVYSCAKDQGFGELFFDYWGQGTLVTVSS
VL: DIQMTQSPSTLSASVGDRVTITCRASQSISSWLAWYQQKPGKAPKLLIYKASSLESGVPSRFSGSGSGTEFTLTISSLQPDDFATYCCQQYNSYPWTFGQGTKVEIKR
notes: OMNIMouse mAb; HC C33H253, LC C33L119 (same IDs as C33B905); also called C33F551

The binders below were run against human CD33 (human, UniProt P20138 18-364) (assay: cell-based or functional assay).
Chain of human CD33 (P20138 18-364 limits assumed): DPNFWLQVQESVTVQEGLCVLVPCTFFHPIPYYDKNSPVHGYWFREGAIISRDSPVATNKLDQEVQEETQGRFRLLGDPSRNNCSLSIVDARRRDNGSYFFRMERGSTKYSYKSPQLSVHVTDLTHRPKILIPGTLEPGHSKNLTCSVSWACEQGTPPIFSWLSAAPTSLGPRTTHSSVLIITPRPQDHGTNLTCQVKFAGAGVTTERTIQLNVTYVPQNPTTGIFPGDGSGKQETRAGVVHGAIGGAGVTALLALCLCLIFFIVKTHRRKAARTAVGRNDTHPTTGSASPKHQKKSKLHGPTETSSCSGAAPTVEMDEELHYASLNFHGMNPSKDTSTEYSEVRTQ

Binder	Cytotoxicity EC50 (nM), T-cell mediated cytotoxicity of MOLM-13
B1	0.513 nM
B2	0.41 nM
B3	1.26 nM
B4	10.6 nM
B5	0.667 nM
B6	0.538 nM
B7	0.067 nM
B8	0.35 nM
B9	0.473 nM

What follows are binders tested against T1, Human CD33 full length (human, UniProt P20138 18-364) (assay: flow cytometry on HEK293F cells expressing human CD33).
T1 construct: Stably expressed on HEK293F cells by lentiviral transduction; also called Human CD33 (on HEK293F cells)
T1 sequence (P20138 18-364 limits assumed): as above
Experimental: (§1) The purified antibodies were assessed for binding to stably transfected HEK293F cells expressing human CD33 or cyno CD33 (generation described above) along with the parental HEK293F as negative control. Cells were harvested from tissue culture flasks using non-enzymatic dissociation buffer (Thermo Scientific). The flasks were rinsed twice with PBS and dissociation buffer was added to the flask, and the flask was incubated for 10 minutes at 37° C. until the cells became non-adherent. The cells were centrifuged at 300 g for 5 minutes and resuspended at 1.0×10⁶ cells/ml in staining buffer (Becton Dickinson; Franklin Lakes, N.J.). 50,000 cells/well of each cell type was plated in 50 μl of staining buffer in round bottom plates (Becton Dickinson). 50 μl of 2× concentration test mAb or isotype control was added at 3 dilutions and zero (120 nM, 12 nM, and 1.2 nM and 0 nM), and the resultant solution was incubated 30 min at 4° C. 100 μl staining buffer was added to all wells of each plate, the plates were spun at 300 g for 5 min, the buffer was removed, 200 μl staining buffer was added to all wells of each plate, the plates were spun at 300 g for 5 min, and the buffer was removed. 50 μl of 2 μg/ml of Goat-anti-human Fc AF647 secondary antibody (Jackson Immunoresearch; West Grove, Pa.) was added to all wells of the plates, and the plates were incubated for 30 min at 4° C. 100 μl staining buffer was added to all wells of the plates, the plates were spun at 300 g for 5 min, and the buffer was removed. 200 μl running buffer (running buffer is Staining buffer, 1 mM EDTA, 0.1% Pluronic Acid) was added to all wells of the plates, the plates were spun at 300 g for 5 min, and the buffer was removed. 30 ul running buffer containing Sytox Green live/dead dye (ThermoFisher) was added to all wells with cells and the plates were read on an iQue IntelliCyt flow cytometer. Cells were gated on forward vs. side scatter to eliminate debris, then on singlets and then on live cells which excluded the Sytox stain. Antibody binding was assessed by the mean fluorescence intensity in the AF647 channel. […]

Binder	mean fluorescence intensity at 0.6 nM mAb	mean fluorescence intensity at 6 nM mAb	mean fluorescence intensity at 60 nM mAb
B10	154 MFI	170 MFI	176 MFI
B11	151 MFI	183 MFI	214 MFI
B12	138000 MFI	363000 MFI	390000 MFI
B13	153000 MFI	315000 MFI	304000 MFI
B14	205000 MFI	409000 MFI	519000 MFI

These binders were tested against T2, Cyno CD33 full length (cynomolgus monkey) (assay: flow cytometry on HEK293F cells expressing cyno CD33).
T2 construct: Stably expressed on HEK293F cells by lentiviral transduction; also called Cyno CD33 (on HEK293F cells)
T2 sequence (chain, as listed by the source limits assumed): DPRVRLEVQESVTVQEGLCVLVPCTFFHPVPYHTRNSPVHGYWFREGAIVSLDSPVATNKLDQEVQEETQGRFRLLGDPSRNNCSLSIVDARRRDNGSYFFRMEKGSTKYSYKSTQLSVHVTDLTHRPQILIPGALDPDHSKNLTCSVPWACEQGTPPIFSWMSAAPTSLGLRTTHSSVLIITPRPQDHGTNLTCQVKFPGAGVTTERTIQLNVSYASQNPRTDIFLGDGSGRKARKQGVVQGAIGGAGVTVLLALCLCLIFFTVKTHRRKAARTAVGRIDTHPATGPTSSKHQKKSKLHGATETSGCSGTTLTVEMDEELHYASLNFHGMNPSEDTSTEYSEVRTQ
Experimental: as §1

Binder	mean fluorescence intensity at 0.6 nM mAb	mean fluorescence intensity at 6 nM mAb	mean fluorescence intensity at 60 nM mAb
B10	116 MFI	135 MFI	180 MFI
B11	117 MFI	135 MFI	202 MFI
B12	36200 MFI	35700 MFI	37500 MFI
B13	22100 MFI	33400 MFI	45000 MFI
B14	35200 MFI	36900 MFI	40700 MFI

Source: US20190382481A1 (Janssen / Centocor, published 2019)
